Target: TcpJ, type 4 prepilin peptidase of Vibrio cholerae (wild-type) (Vibrio cholerae)

With Aprotinin (from UniProt P00974) the % Cleavage of TcpA prepilin by TcpJ in the in vitro cleavage assay was 100%.
